{"source": "patent US20200385482A1", "key": {"[1]": {"target": "human C-type lectin domain family 2 member (hCLEC2D) expressed on transfected 300.19 cells (human) (UniProt Q9UHP7)", "sequence (Q9UHP7 whole entry, the tested form may be a part)": "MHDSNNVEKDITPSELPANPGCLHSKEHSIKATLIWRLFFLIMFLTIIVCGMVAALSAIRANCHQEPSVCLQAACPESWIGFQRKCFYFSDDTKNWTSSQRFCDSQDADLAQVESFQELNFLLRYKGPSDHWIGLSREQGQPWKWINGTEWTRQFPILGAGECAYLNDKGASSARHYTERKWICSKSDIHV", "experiment": "FACS, hCLEC2D 300.19 cells, assay 2, Ab 0.01 ug/ml"}, "[2]": {"target": "human C-type lectin domain family 2 member (hCLEC2D) expressed on transfected 300.19 cells (human) (UniProt Q9UHP7)", "experiment": "FACS, hCLEC2D 300.19 cells, assay 1, Ab 0.1 ug/ml"}, "[3]": {"target": "human C-type lectin domain family 2 member (hCLEC2D) expressed on transfected 300.19 cells (human) (UniProt Q9UHP7)", "experiment": "FACS, hCLEC2D 300.19 cells, assay 2, Ab 0.1 ug/ml"}, "[4]": {"target": "human C-type lectin domain family 2 member (hCLEC2D) expressed on transfected 300.19 cells (human) (UniProt Q9UHP7)", "experiment": "FACS, hCLEC2D 300.19 cells, assay 2, Ab approx 10 ug/ml"}, "[5]": {"target": "human C-type lectin domain family 2 member (hCLEC2D) expressed on transfected 300.19 cells (human) (UniProt Q9UHP7)", "experiment": "FACS, hCLEC2D 300.19 cells, assay 1, Ab 0.01 ug/ml"}, "[6]": {"target": "human C-type lectin domain family 2 member (hCLEC2D) expressed on transfected 300.19 cells (human) (UniProt Q9UHP7)", "experiment": "FACS, hCLEC2D 300.19 cells, assay 1, Ab approx 10 ug/ml"}, "[7]": {"target": "human C-type lectin domain family 2 member (hCLEC2D) expressed on transfected 300.19 cells (human) (UniProt Q9UHP7)", "experiment": "FACS, hCLEC2D 300.19 cells, assay 1, Ab 1 ug/ml"}, "[8]": {"target": "human C-type lectin domain family 2 member (hCLEC2D) expressed on transfected 300.19 cells (human) (UniProt Q9UHP7)", "experiment": "FACS, hCLEC2D 300.19 cells, assay 2, Ab 1 ug/ml"}}, "data": [{"substance": "control hIgG (antibody)", "values": [{"measurement": "Cells PE-A Mean", "setting": "[1]", "value": 146, "unit": "MFI"}, {"measurement": "Cells PE-A Mean", "setting": "[2]", "value": 175, "unit": "MFI"}, {"measurement": "Cells PE-A Mean", "setting": "[3]", "value": 175, "unit": "MFI"}, {"measurement": "Cells PE-A Mean", "setting": "[4]", "value": 1540, "unit": "MFI"}, {"measurement": "Cells PE-A Mean", "setting": "[5]", "value": 146, "unit": "MFI"}, {"measurement": "Cells PE-A Mean", "setting": "[6]", "value": 1540, "unit": "MFI"}, {"measurement": "Cells PE-A Mean", "setting": "[7]", "value": 351, "unit": "MFI"}, {"measurement": "Cells PE-A Mean", "setting": "[8]", "value": 351, "unit": "MFI"}]}]}
